Laboratory results taken from the supplement of paper PMC7125110.
± gives the standard error. This sample holds only a part of the variants without activity.

B1: glmS ribozyme (parent)
chain: AUAAAAGCGCCAGAACUACAGAAAUGUAGUUGACGAGGAGGAGGUUUAUCGAAUUUUCGGCGGAUGCCUCCAAA

Legend:
Conditions in all cases: with glucosamine-6-phosphate
glucosamine-6-phosphate [1] = variants of: B1; test: self-cleavage kobs at 160 uM GlcN6P; higher = faster cleavage; RNA array
Summary of the method: (§1)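 Glucosamine-6-phosphate in HEPES/KCl/Mg(OAc)2 buffer, at 40 μM to 10 mM, was flowed over barcoded ribozyme variants transcribed in situ by E. coli RNA polymerase on sequenced MiSeq chips. Tracking was through a hybridised Cy3 probe at 37 °C. kobs, kcat and KM came from exponential decay fits and weighted Michaelis–Menten fits of normalised per-tile medians.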

glucosamine-6-phosphate [2] = variants of: B1; test: self-cleavage kobs at 640 uM GlcN6P; higher = faster cleavage; RNA array
Summary of the method: as §1

glucosamine-6-phosphate [3] = variants of: B1; test: self-cleavage kobs at 2500 uM GlcN6P; higher = faster cleavage; RNA array
Summary of the method: as §1

glucosamine-6-phosphate [4] = variants of: B1; test: self-cleavage kobs at 10000 uM GlcN6P; higher = faster cleavage; RNA array
Summary of the method: as §1

| Variant | self-cleavage kobs at 160 uM GlcN6P (glucosamine-6-phosphate [1]) [s⁻¹] | self-cleavage kobs at 640 uM GlcN6P (glucosamine-6-phosphate [2]) [s⁻¹] | self-cleavage kobs at 2500 uM GlcN6P (glucosamine-6-phosphate [3]) [s⁻¹] | self-cleavage kobs at 10000 uM GlcN6P (glucosamine-6-phosphate [4]) [s⁻¹] |
| --- | --- | --- | --- | --- |
| AUAAAAGCGCCCGAAGUACAGAAAUGUAGUUGACGAGGAGGAGGUUUAUCGAAUUUUCGGCGGAUGCCUUCAAA [A12C C16G C70U] | 0.000215 ± 8.1e-05 | 0.000259 ± 9.1e-05 | 0.00151 ± 0.00044 |  |
| AUAAAAGCGCCGGAACUACAGAAAUGUAGUUGACGAGGAGGAGGUUUAUCUAAUUUUCGGCGGAUACCUCCAAA [A12G G51U G66A] | < 1e-05 |  | < 1e-05 |  |
| AUAAAAGCGCCGGAGCUACAGAAAUGUAAUUCACGAUGAGGAGGUUUAUCGAAUUUUCGGCGGAUGCCUCCAAA [A12G A15G G29A G32C G37U] | < 1e-05 |  |  |  |
| AUAAAAGCGCCCGAACUACAGAAAUGUAGUUGACCAGGAGGAGGUUUAUCGAAUUUUCGGCGGAUGCCUCCAAA [A12C G35C] | < 1e-05 | < 1e-05 | < 1e-05 |  |
| AUAAAAGCGCCCGAACUACAGAAAUGUAGUUGACGAGGAGCAGGUUUAACGAAUUUUCGGCGGAUGCCUCCAAA [A12C G41C U49A] | < 1e-05 | < 1e-05 | < 1e-05 |  |
| AUAAAAGCGCCUGAACUACAGAAAUGUAGUUGACUAGGAGGAGGUUUAUCGAAUGUUCGGCGGAUGCCUCCAAA [A12U G35U U55G] | < 1e-05 |  |  |  |
| AUAAAAGCGCCCGAACUACAGAAAUGUAGUUGACUAGGAGUAGGUUUAUCGAAUUUUCGGCGGAUGCCUCCAAA [A12C G35U G41U] | < 1e-05 | < 1e-05 |  |  |
| AUAAAAGCGCCUGAACUACAGAAAUGUAAUUGACGAGGAGGAGGUUUAUCGAAUUUUCGGCGGAUGCUUCCAAA [A12U G29A C68U] | 0.000209 ± 5.1e-05 | 0.000265 ± 6.4e-05 | 0.0017 ± 0.0004 | 0.00275 ± 0.0012 |
| AUAAAAGCGCCCGAACUACAGAAAUGUAGUUGACGAGGAGGAGGUUUAAAGAAUUUUCGGCGGAUGCCUCCAAA [A12C U49A C50A] | < 1e-05 |  | < 1e-05 |  |
| AUAAAAGCGCCGGAACUACAGAAAUGUAGUUGACGAGGAGUAGGUUUAUUGAAUUUUCGGCGGAUGCCUCCAAA [A12G G41U C50U] | < 1e-05 | < 1e-05 | < 1e-05 |  |
| AUAAAAGCGCCUGAACUACAGAAAUGUAGUUGACGAGGAGGAGGUUUAUCGAAUUUUCGGAGGAUGCCGCCAAA [A12U C61A U69G] | < 1e-05 |  |  |  |
| AUAAAAGCGCCCGAACUACAGAAAUGUAGUUGAUGAGGAGGAGGUUUAUCGAAUUUUCGGCGGAUGCCUCCAAA [A12C C34U] | < 1e-05 |  | < 1e-05 | < 1e-05 |
| AUAAAAGCGCCUGUUCUACAGAAAUGUAGUUGACGAGGAGGAGGUUUAUCGAAUUUUCGGCGGAUGCCUCCAAA [A12U A14U A15U] | 0.000236 ± 5.9e-05 | 0.00051 ± 0.00013 | 0.00219 ± 0.00059 |  |
| AUAAAAGCGCCUGAACUACAGAAAUGUAGUUGAUGAGGAGGAGGUUUAUCGAAUUUUCGGCGGAUGCCUCCAAA [A12U C34U] | < 1e-05 | < 1e-05 |  | < 1e-05 |
| AUAAAAGCGCCGGAACUACAGAAAUGUAGUUAACUAGGAGGAGGUUUAUCGAAUUUUCGGCGGAUGCGUCCAAA [A12G G32A G35U C68G] | < 1e-05 |  |  |  |
| AUAAAAGCGCCUGAAAUACAGAAAUGUAGUUGACGAGGAGCAGGUUUAUCGAAUUUUCGGCGGAUGCCUCCAAA [A12U C16A G41C] | < 1e-05 |  |  |  |

| Variant | self-cleavage kobs at 160 uM GlcN6P (glucosamine-6-phosphate [1]) [s⁻¹] | self-cleavage kobs at 640 uM GlcN6P (glucosamine-6-phosphate [2]) [s⁻¹] | self-cleavage kobs at 2500 uM GlcN6P (glucosamine-6-phosphate [3]) [s⁻¹] | self-cleavage kobs at 10000 uM GlcN6P (glucosamine-6-phosphate [4]) [s⁻¹] |
| --- | --- | --- | --- | --- |
| AUAAAAGCGCCCGAACUACAGAAAUGUAGUUGACGAAGAGGAGGUUUAUCGGAUUUUCGGCGGAUGCCUCCAAA [A12C G37A A52G] | < 1e-05 |  | 5.63e-05 ± 1.7e-05 |  |
| AUAAAAGCGCCGGAACUACAGAAAUGUAGUUGACGAGGAGGAGGUUUAUCGAAUUCUCGACGGAUGCCUCCAAA [A12G U56C G60A] | < 1e-05 | < 1e-05 | < 1e-05 |  |
| AUAAAAGCGCCUGAACUACAGAAAUGUAGUUGACCAGGAGGAGGUUUAUCGAAUUUUCGGCGGAUGCCUCCAAA [A12U G35C] | < 1e-05 | < 1e-05 |  | < 1e-05 |
| AUAAAAGCGCCGGAACUACAGAAAUGUAGUUGACGCGGAGGAGGUUUAUCGAAUUUUCGGCGGAUCCGUCCAAA [A12G A36C G66C C68G] | < 1e-05 |  |  |  |
| AUAAAAGCGCCCGAAUUACAGAAAUGUAGUUGACGAGGAGGAGGUUUAUCGAGUUUUCGGCGGAGGCCUCCAAA [A12C C16U A53G U65G] | 9.62e-05 ± 2.4e-05 | 0.000453 ± 9.1e-05 | 0.000899 ± 0.00019 |  |
| AUAAAAGCGCCGGAACUACAGAAAUGUAGUUGACGAGGAGGAGCUUUAUCGAAUUUUCGGCGGAUGCCUCCAAA [A12G G44C] | < 1e-05 | < 1e-05 | < 1e-05 |  |
| AUAAAAGCGCCUGAACUACAGAAAUGUAGUUGACGAGGAGGUGUUUUAUCGAAUUUUCGGCGGAUGGCUCCAAA [A12U A42U G44U C67G] | 3.69e-05 ± 1.5e-05 | 0.000122 ± 3.2e-05 | 0.000326 ± 9.4e-05 |  |
| AUAAAAGCGCCUGCACUACAGAAAUGUAGUUGACGAGGACGUGGGUUAUCGAAUUUUCGGCGGAUGCCUCCAAA [A12U A14C G40C A42U U45G] | < 1e-05 | < 1e-05 |  |  |
| AUAAAAGCGCCGGAACUACAGAAAUGUAGUUGACGAGGAUGAGGUUUAUCGAGUUUUCGGCGGAUGUCUCCAAA [A12G G40U A53G C67U] | < 1e-05 | < 1e-05 |  |  |
| AUAAAAGCGCCGGAACUACAGAAAUGUAGUUGAUGAGGAGAAGGUUUAUCGAAUUUUCGGCGGAUGCCUCCAAA [A12G C34U G41A] | < 1e-05 | < 1e-05 |  |  |
| AUAAAAGCGCCUGAACUACAGAAAUGUAGUUGACGAGGAGGAGGUUUAUGGAAUUUUCGGCGGAUGCCUGCAAA [A12U C50G C70G] | 0.000311 ± 7.3e-05 | 0.000429 ± 8.2e-05 | 0.000205 ± 7.3e-05 | 0.000273 ± 6e-05 |
| AUAAAAGCGCCCGAACUACAGAAAUGUAGUUGACGAGGAGGAGGUUUAUCGAAUUUUCUGCGGAUGCCUCCAAA [A12C G59U] | < 1e-05 |  | < 1e-05 | < 1e-05 |
| AUAAAAGCGCCGGAACUACAGAAAUGUAGUUGACGAGGAGGAGGUUUAUCGAAUUUUCCGCGCAUGACUCCAAA [A12G G59C G63C C67A] | < 1e-05 | < 1e-05 | < 1e-05 |  |
| AUAAAAGCGCCUGAACUACAGAAAUGUAGUUGACGAGCAGGAGGUUUAUCGAGUCUUCGGCGGAUGGCUCCAAA [A12U G38C A53G U55C C67G] | < 1e-05 | < 1e-05 | < 1e-05 |  |
| AUAAAAGCGCCCGAACUACAGAAAUGUAGUUGACGAGGAGGAGGUUUAUCGAAUUUUCGGCGCAUCCCUCCAAA [A12C G63C G66C] | < 1e-05 | < 1e-05 |  |  |
